Changes are numbered by the printed parent chain. Numbers in names are those of the source. Where “and” joins values, the source holds several entries; their conditions need not be identical. Equal entries are not always repeated. Entries after “also recorded” stand apart in the source; their conditions may differ. Values belong to the molecule of their own block, whether it stands above or below them. Ends that are not written are not given here.
Legend:
EH-domain of EHD2 = target: T1, EH-domain of EHD2 (Mus musculus, UniProt Q8BH64); assay: ITC peptide binding to the EH-domain of EHD2; settings: ITC at 10° C.; for affinity of xPF peptide to the EH-domain of EHD2 by ITC: 100 mM HEPES (pH 7.5), 50 mM NaCl, 200 μM CaCl2
T1 sequence (Q8BH64 449-537 limits assumed): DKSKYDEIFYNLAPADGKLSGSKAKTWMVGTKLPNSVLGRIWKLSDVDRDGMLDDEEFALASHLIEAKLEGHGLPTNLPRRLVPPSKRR
Source text: EH-domains are low affinity protein-protein interactors normally found in endocytic multi-subunit assemblies. A likely purpose of the EH-domain is in recruitment of the protein to sites of action. […] An alternative explanation for the function of the EH-domain in the oligomer can be proposed based on the presence of two conserved PF motifs (NPF and IPF) in a disordered surface loop at the side of the G-domain between β-sheet 2A and 2B. In our proposed oligomer, the EH-domains from one dimer are close to the side-site NPF motif of the adjacent dimer (FIG. 4c) and thus after oligomerisation on membranes they may switch position from the top site position in the dimer to the side site in the opposing dimer. […] A dominant negative mutant in C. elegans Rme1 is found in the linker between the EH-domain and the helical domain^3 pointing to the importance of this flexible linker.

EHD2 [1] = target: T2, EHD2 (Mus musculus, UniProt Q8BH64); assay: Multiple turnover ATPase assay (nucleotide hydrolysis by HPLC) with or without Folch liposomes; assay type: biochemical
T2 construct: Mouse EHD2 full-length protein and all mutants were expressed as N-terminal His-fusions followed by a PreScission cleavage site; His (N, cleaved yes); made in house; host or cells: Escherichia coli BL21 DE3 Rosetta
T2 sequence (Q8BH64 1-543): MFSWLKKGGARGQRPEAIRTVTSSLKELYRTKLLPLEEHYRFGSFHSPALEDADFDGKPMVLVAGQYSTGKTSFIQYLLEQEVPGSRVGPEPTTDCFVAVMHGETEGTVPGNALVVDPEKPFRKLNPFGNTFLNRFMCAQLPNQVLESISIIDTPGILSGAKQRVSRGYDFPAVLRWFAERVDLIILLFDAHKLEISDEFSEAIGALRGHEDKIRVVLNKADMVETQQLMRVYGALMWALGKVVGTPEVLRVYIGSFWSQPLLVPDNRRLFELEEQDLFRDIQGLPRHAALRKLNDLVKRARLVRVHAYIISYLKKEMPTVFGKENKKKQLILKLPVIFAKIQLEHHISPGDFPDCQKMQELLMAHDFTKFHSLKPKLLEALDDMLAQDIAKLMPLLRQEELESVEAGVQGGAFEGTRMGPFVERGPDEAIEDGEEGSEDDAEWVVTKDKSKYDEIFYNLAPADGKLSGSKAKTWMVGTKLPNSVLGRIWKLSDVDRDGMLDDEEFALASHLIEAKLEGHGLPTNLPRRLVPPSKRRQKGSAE
Procedure: (§1) Amino acid numbering corresponds to mouse EHD2. b, EHD2 binds to adenine nucleotides, as determined by ITC. For clarity, ΔΔH=ΔHn−ΔH1 is plotted. […] Images were acquired close to the basal cell surface. f, Nucleotide hydrolysis was measured by HPLC in the absence (empty symbols) or presence of Folch liposomes (filled symbols). Data represent mean and standard deviation for two (intrinisic reactions) or three (stimulated reactions) independent experiments.
(§2) ITC measurements were performed at 10° C. in 20 mM HEPES (pH 7.5), 300 mM NaCl, 2 mM MgCl2. Liposome binding assays were performed as described previously (www.endocytosis.org). Multiple turnover ATPase assays were performed in 20 mM HEPES (pH 7.5), 135 mM NaCl, 15 mM KCl, 1 mM MgCl2 at 30° C. with 10 μM EHD2 (or mutants) as enzyme and 100 μM ATP as substrate, in the absence or presence of 1 mg/ml Folch liposomes (Sigma-Aldrich).
Reactions were started by the addition of the protein to the final reaction mix and nucleotide hydrolysis was followed using standard HPLC measurement^27. Initial rates were determined by applying a linear fit to data points up to 40% nucleotide hydrolysis. For electron microscopic studies, 2.5 μM EHD2 in 20 mM HEPES (pH 7.5), 150 mM NaCl, 1 mM MgCl2 was incubated for 15 min at 25° C. in the presence of 1 mM nucleotide and 0.05 mg/ml (final concentration) of the indicated liposomes. Samples were spotted on carbon-coated copper grids (Canemco and Marivac) and negatively stained with 2% uranyl acetate.
We next monitored the effect of membrane-binding on the ATPase activity of. EHD2 under multiple-turnover conditions (10-fold excess of ATP over EHD2), in the presence and absence of Folch liposoines (FIG. 1f). The intrinsic/background ATPase activity is extremely slow (kobs=0.7 h^−1) but is stimulated 8-fold in the presence of Folch or PS liposomes (kobs=5.6 h^−1).

EHD2 [2] = target: T2, EHD2; assay: ITC nucleotide binding to EHD2; settings: ITC at 10° C.
Procedure: as §1, §2
Mouse full-length EHD2 was expressed in bacteria and purified to homogeneity (FIG. 5). The purified protein was nucleotide-free as judged by HPLC analysis. […] It was previously reported that EHDs—despite having a predicted G-domain—bind to adenine nucleotides^15. […] We still refer to this domain as a G-domain because the sequence and fold (see below) are clearly similar to other G-domains. […] Using synthetic liposomes containing various different phosphatidyl-inositols (PI) (FIG. 1c) we observed best binding to liposomes containing PI(4,5)bisphosphate (PIP2).

HeLa cells = assay: Over-expression of EGFP-tagged EHD2 and mutants in HeLa cells (confocal / live imaging); assay type: cell-based; settings: 24 h after transfection, fixed
Procedure: as §1
Nucleotide hydrolysis was measured as described in FIG. 1f. In vitro tubulation activity of PS liposomes was analysed as described in FIG. 1d. f, EGFP-tagged mutants were over-expressed in HeLa cells. […] For each construct, three independent experiments with ≈50 cells/experiments were analysed.
Ultracentrifugation. Sedimentation velocity experiments were performed in a Beckman Optima XLA ultracentrifuge, using an An-60Ti rotor. Centrifugation was at 50,000 rev×min and 5° C. at an EHD2 concentration of 15 μM, with scans as fast as possible (˜1.5 min intervals). The data were analysed using DCDT+ v.2^44,45, with the partial specific volume for the protein (from the amino acid composition) and solvent density and viscosity calculated using Sednterp^46. Selected scans (at equal, ˜15 min intervals), and of g(s20,w) (the amount of material sedimenting between s20,w and (s20,w+δs)) and also the residuals for fitting the data with DCDT+, were plotted with the program profit v.5.6.7 (Quantum soft, Switzerland). Cell biology. N-terminal EGFP-tagged EHD2 and all mutants were over-expressed in HeLa cells from the pEGFP-C3 vector (Clontech). HeLa cells were grown as per ECACC guidelines with 10% fetal bovine serum and transfected using Genejuice (Novagen) for transient protein expression. 24 h after transfection, cells were fixed for 10 min at 37° C. in 3% paraformaldehyde and mounted. All confocal images were taken sequentially using a BioRad Radiance system and LaserSharp software (Biorad). For real-time microscopy, transfected cells on glass-bottom Petri dishes (WillCo Wells BV, Amsterdam) were washed with 25 mM HEPES (pH 7.5), 125 mM NaCl, 5 mM KCl, 10 mM D-glucose, 1 mM MgCl2, 2 mM CaCl), and epifluorescence images were taken using an Olympus IX70 microscope (Southhall, UK) and Argon laser (Melles Griot, Carlsbad, Calif.) with a Princeton instruments (Trenton, N.J.) cooled I-PentaMAX camera with MetaMorph software (Universal imaging).
EHD2 wild-type was over-expressed in HeLa cells for 24 h and imaged by EPI-fluorescence for approximately 30 min.
EHD2 T94A was over-expressed in HeLa cells for 24 h and imaged by EPI-fluorescence for approximately 30 min. […] EHD2 I157Q was over-expressed in HeLa cells for 24 h and imaged by EPI-fluorescence for approximately 30 min.

n (fitted ITC value), peptide binding to EH-domain (EH-domain of EHD2): 1.33
Molecule: KLNPFGNT [KLNPFGNT]

affinity of xPF peptide to the EH-domain of EHD2 by ITC (EH-domain of EHD2): did not (show detectable binding
Molecule: PEKPFRKL [peptide from EHD2 containing KPF motif]

affinity of xPF peptide to the EH-domain of EHD2 by ITC (EH-domain of EHD2): did not (show detectable binding
Molecule: RMGPFVER [peptide from EHD2 linker containing GPF motif]
affinity of xPF peptide to the EH-domain of EHD2 by ITC (EH-domain of EHD2; listed as top site GPF peptide): not the top site GPF peptide, bound with a measurable affinity

Molecule: Nc1nc2c(ncn2[C@@H]2O[C@H](COP(=O)(O)OP(=O)(O)OP(=O)(O)O)[C@@H](O)[C@H]2O)c(=O)[nH]1 [GTP, reference compound]
GTP hydrolysis by EHD2 (in words) (EHD2 [1]; presence or absence of Folch liposomes): not stimulated; also recorded: not hydrolysed

n (fitted ITC value), nucleotide binding to EHD2 (EHD2 [2]): 0.9 | Kd (EHD2 [2]; 20 mM HEPES (pH 7.5), 300 mM NaCl, 2 mM MgCl2, read-out: affinity to EHD2 determined by ITC): 50 µM and ~50 µM
Molecule: Nc1ncnc2c1ncn2[C@@H]1O[C@H](COP(=O)(O)OP(=O)(O)O)[C@@H](O)[C@H]1O [ADP]

Molecule: Nc1nc2c(ncn2[C@@H]2O[C@H](COP(=O)(O)OP(=O)(O)OP(O)(O)=S)[C@@H](O)[C@H]2O)c(=O)[nH]1 [GTP-γ-S]
affinity to EHD2 determined by ITC (EHD2 [2]; 20 mM HEPES (pH 7.5), 300 mM NaCl, 2 mM MgCl2): No binding signal was observed

B1: EHD2 E91Q (protein)
chain: T2 sequence (Q8BH64 1-543) with E91Q
assembly-stimulated ATP hydrolysis (Q8BH64): all mutants showed reduced or completely abolished assembly-stimulated ATP hydrolysis

B2: EHD2 D198R (protein)
chain: T2 sequence (Q8BH64 1-543) with D198R
assembly-stimulated ATP hydrolysis (Q8BH64): all mutants showed reduced or completely abolished assembly-stimulated ATP hydrolysis

B3: EHD2 K193D (protein)
chain: T2 sequence (Q8BH64 1-543) with K193D
assembly-stimulated ATP hydrolysis (Q8BH64): all mutants showed reduced or completely abolished assembly-stimulated ATP hydrolysis

B4: K329D: EHD2 polybasic cluster mutant (protein, UniProt Q8BH64 1-543, looked up, variant K329D)
EH domain-containing protein 2: T2 sequence (Q8BH64 1-543) with K329D
distribution of EGFP-tagged protein over-expressed in HeLa cells (HeLa cells): completely cytoplasmic distribution

B5: EHD2 R167E (protein)
chain: T2 sequence (Q8BH64 1-543) with R167E
assembly-stimulated ATP hydrolysis (Q8BH64): all mutants showed reduced or completely abolished assembly-stimulated ATP hydrolysis | nucleotide hydrolysis (basal and Folch-stimulated ATPase) (Q8BH64): mutant R167E (in Switch II) showed an increased basal ATPase activity which was not further stimulated by Folch liposomes | intrinsic/basal ATPase activity (in words) (EHD2 [1]; absence of membranes): increased basal ATPase activity | membrane-stimulated ATPase activity (in words) (EHD2 [1]; presence of Folch liposomes): not further stimulated by Folch liposomes

B6: K327D: EHD2 polybasic cluster mutant (protein, UniProt Q8BH64 1-543, looked up, variant K327D)
EH domain-containing protein 2: T2 sequence (Q8BH64 1-543) with K327D
distribution of EGFP-tagged protein over-expressed in HeLa cells (HeLa cells): completely cytoplasmic distribution

B7: K324D: EHD2 polybasic cluster mutant (protein, UniProt Q8BH64 1-543, looked up, variant K324D)
EH domain-containing protein 2: T2 sequence (Q8BH64 1-543) with K324D
distribution of EGFP-tagged protein over-expressed in HeLa cells (HeLa cells): completely cytoplasmic distribution
